# Entries after “also recorded” stand apart in the source; their conditions may differ.
# Assays:
# CDT-2 = experiment: Yeast cell-based xylodextrin uptake assay; set-up: species or system Neurospora crassa; settings: starting concentration 100 μM, 30 minutes
# Procedure: (§1) S. cerevisiae was grown in an optimized minimum medium (oMM) lacking uracil into late log phase. The oMM contained 1.7 g/L YNB (Sigma, Y1251), 2-fold appropriate CSM dropout mixture, 10 g/L (NH4)2SO4, 1 g/L MgSO4.7H2O, 6 g/L KH2PO4, 100 mg/L adenine hemisulfate, 10 mg/L inositol, 100 mg/L glutamic acid, 20 mg/L lysine, 375 mg/L serine and 100 mM 4-morpholineethanesulfonic acid (MES), pH 6.0 (Lin et al., submitted). Cells were then harvested and washed three times with assay buffer (5 mM MES, 100 mM NaCl, pH 6.0) and resuspended to a final OD600 of 40. Substrate stocks were prepared in the same assay buffer at a concentration of 200 μM. Transport assays were initiated by mixing equal volumes of the cell suspension and the substrate stock. Reactions were incubated at 30° C. with continuous shaking for 30 minutes. Samples were centrifuged at 14,000 rpm at 4° C. for 5 minutes to remove yeast cells. 400 μL of each sample supernatant was transferred to an HPLC vial containing 100 μL of 0.5 M NaOH, and the concentration of the remaining substrate was measured by HPAEC as described below.
# as §1, with “(Lin et al. 2014). Cells were” for “(Lin et al., submitted). Cells were”, “30 minutes. […] 400 μL” for “30 minutes. Samples were centrifuged at 14,000 rpm at 4° C. for 5 minutes to remove yeast cells. 400 μL”, “100 μL 0.5 M” for “100 μL of 0.5 M”
# [1] = Xylose reductase assay of NcXR with xylodextrin; assay type: biochemical, Neurospora crassa; settings: in vitro, xylodextrins with degrees of polymerization 2 to 4; products up to xlt3
# Procedure: For the xylose reductase assays of S. stipitis XR and N. crassa XR, 1 μM of purified enzyme was incubated with 0.06% xylodextrin and 2 mM NADPH in 1×PBS at 30° C. Reactions were sampled at 30 min and quenched by heating at 99° C. for 10 min. The products were analyzed by LC-QToF as described below.
# For the xylose reductase assays of NcXR, 1 μM of purified enzyme was incubated with 0.06% xylodextrin and 2 mM NADPH in 1×PBS at 30° C. Reactions were sampled at 30 min and quenched by heating at 99° C. for 10 min. The products were analyzed by LC-QToF as described below.
# [2] = β-xylosidase assay of GH43-2 and GH43-7 with xylosyl-xylitol and xylobiose; assay type: biochemical, Neurospora crassa; settings: purified enzyme
# Procedure: For the β-xylosidase assay of GH43-2 with xylodextrins, 0.5 μM of purified enzyme was incubated with 0.1% in-house prepared xylodextrin or 1 mM xylobiose (Megazyme) in 1×PBS at 30° C. Reactions were sampled at 30 min and quenched by adding 5 volumes of 0.1 mM NaOH. The products were analyzed by HPAEC as described below. For pH profiling, acetate buffer at pH 4.0, 4.5, 5.0, 5.5, 6.0, and phosphate buffer at 6.5, 7.0, 7.5, 8 were added at a concentration of 0.1 M. For the β-xylosidase assay of GH43-2 and GH43-7 with xylosyl-xylitol, 10 μM of purified enzyme was incubated with 4.5 mM xylosyl-xylitol and 0.5 mM xylobiose in 20 mM MES buffer, pH=7.0, and 1 mM CaCl2 at 30° C. Reactions were sampled at 3 hours and quenched by heating at 99° C. for 10 min. The products were analyzed by ion-exclusion HPLC as described below.
# For the β-xylosidase assay of GH43-2 with xylodextrins, 0.5 μM of purified enzyme was incubated with 0.1% in-house prepared xylodextrin or 1 mM xylobiose (Megazyme) in 1×PBS at 30° C. Reactions were sampled at 30 min and quenched by adding 5 volumes of 0.1 M NaOH. The products were analyzed by HPAEC as described below. […] The products were analyzed by ion-exclusion HPLC as described below.
# [3] = Activity of bacterial GH43-7 enzymes on xylobiose or xylosyl-xylitol; assay type: biochemical; settings: purified enzyme; for β-xylosidase activity: xylobiose (X2) substrate; for xylosyl-xylitol hydrolase activity: xylosyl-xylitol (xlt2) substrate
# Procedure: Experiments were also conducted to further explore potential xylosyl-xylitol hydrolase activity of other β-xylosidases. […] To see if these proteins actually have xylosyl-xylitol hydrolase activity, purified B. subtilis GH43-7 and purified E. coli GH43-7 were incubated with xylobiose (X2) or xylosyl-xylitol (xlt2) and their activity on these substrates was analyzed. […] In summary, two GH43 enzymes from bacteria Bacillus subtilis (AAB41091.1) and Escherichia coli (WP_000406872.1) were tested and confirmed to both cleave xylosyl-xylitol.
# S. cerevisiae strains transformed with pRS423_GH43-2, pRS423_GH43-7, or pRS313_NcXR were grown in oMM lacking histidine with 2% glucose until late log phase before harvesting by centrifugation. E. coli strains BL21DE3 transformed with pET302_BsGH43-7 or pET302_EcGH43-7 were grown in TB medium, induced with 0.2 mM IPTG at OD600 of 0.8, and harvested by centrifugation 12 hours after induction. Yeast or E. coli cell pellets were resuspended in a buffer containing 50 mM Tris-HCl, 100 mM NaCl, 0.5 mM DTT, pH 7.4 and protease inhibitor cocktail (Pierce). Cells were lysed with an Avestin homogenizer, and the clarified supernatant was loaded onto a HisTrap column (GE Healthcare). His-tagged enzymes were purified with an imidazole gradient, buffer-exchanged into 20 mM Tris-HCl, 100 mM NaCl, pH 7.4, and concentrated to 5 mg/mL.
molecule,measurement,setting,value
OC1OC[C@@H](O[C@@H]2OC[C@@H](O)[C@H](O)[C@H]2O)[C@H](O)[C@H]1O (stereo partly shown) [xylobiose],import into S. cerevisiae strains expressing cdt-2,CDT-2,able to import
OC1OC[C@@H](O[C@@H]2OC[C@@H](O[C@@H]3OC[C@@H](O[C@@H]4OC[C@@H](O)[C@H](O)[C@H]4O)[C@H](O)[C@H]3O)[C@H](O)[C@H]2O)[C@H](O)[C@H]1O (stereo partly shown) [xylotetraose],import into S. cerevisiae strains expressing cdt-2,CDT-2,able to import
OC1OC[C@@H](O[C@@H]2OC[C@@H](O[C@@H]3OC[C@@H](O)[C@H](O)[C@H]3O)[C@H](O)[C@H]2O)[C@H](O)[C@H]1O (stereo partly shown) [xylotriose],import into S. cerevisiae strains expressing cdt-2,CDT-2,able to import
"XYR-1: xylose reductase from Neurospora crassa (protein, N. crassa) MVPAIKLNSGFDMPQVGFGLWKVDGSIASDVVYNAIKAGYRLFDGACDYGNEVECGQGVARAIKEGIVKREELFIVSKLWNTFHDGDRVEPIVRKQLADWGLEYFDLYLIHFPVALEYVDPSVRYPPGWHFDGKSEIRPSKATIQETWTAMESLVEKGLSKSIGVSNFQAQLLYDLLRYAKVRPATLQIEHHPYLVQQNLLNLAKAEGIAVTAYSSFGPASFREFNMEHAQKLQPLLEDPTIKAIGDKYNKDPAQVLLRWATQRGLAIIPKSSREATMKSNLNSLDFDLSEEDIKTISGFDRGIRFNQPTNYFSAENLWIFG",production of xylosyl-xylitol oligomers from xylodextrin substrates,[1],able to directly produce xylosyl-xylitol oligomers; also recorded: generated xylosyl-xylitol products
"GH43-7: second putative intracellular β-xylosidase from N. crassa with xylosyl-xylitol hydrolase activity (protein, N. crassa) MPLVKNPILPGFNPDPSVLRVGQDYYIATSTFEWYPGVQIHHSTDLANWTLLTRPLNRKSQLDMRGDPDSCGVWAPCLSHDGDKFWLVYTDVKRKDGSFKDAHNFIVWADKIDGEWSDPVYVNSSGFDPSLFHDPDSGKKYFVNMLWDHRRRPLLFAGIAVQEWDAKTKKLVGERKNVYQGTELALAEAPHVYKRNGWYYLLIAEGGTGYEHACTLARSKDIWGPYKTHPEKHVLTSKDHPRAALQRAGHGDIVEIEDGRTYLVHLTGRPTTQLRRCVLGRETAIQECYWKDDWLYVKNGPVPSLWVDLLGERDESKYWEEKRYTFKDGLHKDFQWLRTPETERIFNVKDGKLTLIGREAIGSWFEQALVARRQEHFSYDAETVIDFSPTDERQFAGLTAYYCRYNFFYLTVTAHSDGQRELLIMSSEASWPIGNLNTPYVPYVQIPNEGKVKLALTIRGNQLQFYYAVLDSGDEELKKIGPVFDASIVSDECGGHQQHGSFTGAFVGVAASDLNGLAAEAKFDYLLYKPVKNQQDAYVRDNE",β-xylosidase activity,[2]; xylobiose substrate,weak β-xylosidase activity
same,hydrolysis of xylosyl-xylitol into xylose and xylitol,[2]; xylosyl-xylitol substrate,rapidly hydrolyzed
"B. subtilis GH43-7: GH43 enzyme from bacteria Bacillus subtilis, homologous to GH43-7 (protein, listed as Bacillus subtilis) MKITNPVLKGFNPDPSICRAGEDYYIAVSTFEWFPGVQIHHSKDLVNWHLVAHPLQRVSQLDMKGNPNSGGVWAPCLSYSDGKFWLIYTDVKVVDGAWKDCHNYLVTCETINGDWSEPIKLNSSGFDASLFHDTDGKKYLLNMLWDHRIDRHSFGGIVIQEYSDKEQKLIGKPKVIFEGTDRKLTEAPHLYHIGNYYYLLTAEGGTRYEHAATIARSANIEGPYEVHPDNPILTSWHDPGNPLQKCGHASIVQTHTDEWYLAHLTGRPIHPDDDSIFQQRGYCPLGRETAIQKLYWKDEWPYVVGGKEGSLEVDAPSIPETIFEATYPEVDEFEDSTLNINFQTLRIPFTNELGSLTQAPNHLRLFGHESLTSTFTQAFVARRWQSLHFEAETAVEFYPENFQQAAGLVNYYNTENWTALQVTHDEELGRILELTICDNFSFSQPLNNKIVIPREVKYVYLRVNIEKDKYYYFYSFNKEDWHKIDIALESKKLSDDYIRGGGFFTGAFVGMQCQDTGGNHIPADFRYFRYKEK",β-xylosidase activity,[3],exhibited β-xylosidase activity
same,xylosyl-xylitol hydrolase activity,[3],exhibited xylosyl-xylitol hydrolase activity
"E. coli GH43-7: GH43 enzyme from bacteria Escherichia coli, homologous to GH43-7 (protein, listed as Escherichia coli) MEITNPILTGFNPDPSLCRQGEDYYIATSTFEWFPGVRIYHSRDLKNWSLVSTPLDRVSMLDMKGNPDSGGIWAPCLSYADGKFWLLYTDVKIVDSPWKNGRNFLVTAPSIEGPWSEPIPMGNGGFDPSLFHDDDGRKYYIYRPWGPRHHSNPHNTIVLQAFDPQTGTLSPERKTLFTGTPLCYTEGAHLYRHAGWYYLMVAEGGTSYEHAVVVLRSKNIDGPYELHPDVTMMTSWHLPENPLQKSGHGSLLQTHTGEWYMAYLTSRPLRLPGVPLLASGGRGYCPLGRETGIARIEWRDGWPYVEGGKHAQLTVKGPQVAEQPAAVPGNWRDDFDASSLDPELQTLRIPFDDTLGSLTARPGFLRLYGNDSLNSTFTQSTVARRWQHFAFRAETRMEFSPVHFQQSAGLTCYYNSKNWSYCFVDYEEGQGRTIKVIQLDHNVPSWPLHEQPIPVPEHAESVWLRVDVDTLVYRYSYSFDGETWHTVPVTYEAWKLSDDYIGGRGFFTGAFVGLHCEDISGDGCYADFDYFTYEPV",β-xylosidase activity,[3],exhibited β-xylosidase activity
same,xylosyl-xylitol hydrolase activity,[3],exhibited xylosyl-xylitol hydrolase activity

# From patent publication US9670515B2, “Methods for production of xylosylxylitol oligomers” (The Regents of the University of California, priority 2014, dated 2017)
